From article PMC5851990 (2018)

What was measured:
[1] = target: chicken Ten2^ecto wild type (residues 596-2802) (chicken, UniProt Q9DER5 596-2802); assay: SPR
[2] = target: chicken Ten2^ecto P1680L mutant (residues 596-2802) (chicken, UniProt Q9DER5 596-2802, P1680L); assay: SPR

Kd [1]: 790 nM
Kd [2]: 740 nM
B1: mouse Lphn2^Lec (Latrophilin 2 lectin domain, residues 30-137) (domain or fragment)
chain: ALPFGLVRRELSCEGYSIDLRCPGSDVIMIESANYGRTDDKICDADPFQMENTDCYLPDAFKIMTQRCNNRTQCIVVTGSDVFPDPCPGTYKYLEVQYECVPYSKMLV
modifications: biotinylated enzymatically in vivo at a C-terminal AviTag
